{
  "source": "patent US20230218738A1",
  "about": "(Pfizer, published 2023)",
  "binders": {"B1": {"name": "AM22 (antibody, V domains shown)", "VH": "QVQLVQSGAEVKKPGATVKVSCKISGHTLIKLSIHWVRQAPGKGLEWMGGYEGEVDEIFYAQKFQHRLTVIADTATDTVYMELGRLTSDDTAVYFCGTLGVTVTEAGLGIDDYWGQGTLVTVSS", "VL": "EIVLTQSPGTLSLSPGERATLSCRASQIVSRNHLAWYQQKPGQAPRLLIFGASSRATGIPVRFSGSGSGTDFTLTINGLAPEDFAVYYCLSSDSSIFTFGPGTKVDFK"}, "B2": {"name": "MPE8 (antibody, V domains shown)", "VH": "EVQLVESGGGLVKPGGSLRLSCAASGFTFSSYSMNWVRQAPGKGLEWVSSISASSSYSDYADSAKGRFTISRDNAKTSLFLQMNSLRAEDTAIYFCARARATGYSSITPYFDIWGQGTLVTVSS", "VL": "QSVVTQTPSVSGAPGQRVTISCTGSSSNIGAGYDVHWYQQLPGTAPKLLIYDNNNRPSGVPDRFSASKSGTSASLAITGLQAEDEADYYCQSYDRNLSGVFGTGTKVTVL", "notes": "also called MPEG"}},
  "assay_in_all_cases": "BLI (Octet), F on anti-HIS tip, 20 nM mAb",
  "key": {"[1]": {"target": "RSV F protein mutant pXCS876 (RSV A2, UniProt P03420 26-109)"}, "[2]": {"target": "RSV F protein mutant pXCS879 (RSV A2, UniProt P03420 26-109)"}, "[3]": {"target": "T1, RSV F protein mutant pXCS827 (RSV A2, UniProt P03420 26-109)", "T1 chain 1": "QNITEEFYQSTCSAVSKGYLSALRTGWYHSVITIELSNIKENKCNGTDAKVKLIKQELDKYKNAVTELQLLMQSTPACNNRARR", "T1 chain 2": "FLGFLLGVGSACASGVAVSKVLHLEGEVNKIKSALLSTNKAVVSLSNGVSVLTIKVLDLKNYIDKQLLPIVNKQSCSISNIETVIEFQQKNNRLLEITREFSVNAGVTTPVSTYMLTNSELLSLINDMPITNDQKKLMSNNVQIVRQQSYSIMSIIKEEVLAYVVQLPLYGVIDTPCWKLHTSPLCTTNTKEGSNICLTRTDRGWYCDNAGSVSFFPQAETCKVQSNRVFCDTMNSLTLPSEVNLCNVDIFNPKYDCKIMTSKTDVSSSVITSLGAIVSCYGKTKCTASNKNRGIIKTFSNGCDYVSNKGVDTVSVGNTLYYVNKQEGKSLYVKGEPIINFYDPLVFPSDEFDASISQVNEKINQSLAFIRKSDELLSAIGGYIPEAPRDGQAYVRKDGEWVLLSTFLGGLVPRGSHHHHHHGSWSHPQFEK"}, "[4]": {"target": "RSV F protein mutant pXCS804 (RSV A2, UniProt P03420 26-109)"}, "[5]": {"target": "T2, RSV F protein mutant pXCS880 (RSV A2, UniProt P03420 26-109)", "T2 chain 1": "T1 chain 1 with S30C, C78T", "T2 chain 2": "T1 chain 2 with L6C, C12I, L52C, N235C, D350S, E351Q, D353S"}, "[6]": {"target": "RSV F protein mutant pXCS898 (RSV A2, UniProt P03420 26-109)"}, "[7]": {"target": "T3, RSV F protein mutant pXCS852 (RSV A2, UniProt P03420 26-109)", "T3 chain 1": "T1 chain 1 with S30C, C78T", "T3 chain 2": "T1 chain 2 with C12I, L52C, I54S, D350S"}, "[8]": {"target": "RSV F protein mutant pXCS811 (RSV A2, UniProt P03420 26-109)"}, "[9]": {"target": "RSV F protein mutant pXCS897 (RSV A2, UniProt P03420 26-109)"}, "[10]": {"target": "RSV F protein mutant pXCS873 (RSV A2, UniProt P03420 26-109)"}, "[11]": {"target": "T4, RSV F protein mutant pXCS851 (RSV A2, UniProt P03420 26-109)", "T4 chain 1": "T1 chain 1", "T4 chain 2": "T1 chain 2 with V160I, D350S"}, "[12]": {"target": "RSV F protein mutant pXCS884 (RSV A2, UniProt P03420 26-109)"}},
  "note": "Residue numbers refer to the chain shown, from its start.",
  "data": [
    {"binder": "B1", "values": [
      {"measurement": "Response (nm shift)", "setting": "[1]", "value": 0.268, "unit": "nm"},
      {"measurement": "Response (nm shift)", "setting": "[2]", "value": 0.351, "unit": "nm"},
      {"measurement": "Response (nm shift)", "setting": "[3]", "value": 0.45, "unit": "nm"},
      {"measurement": "Response (nm shift)", "setting": "[4]", "value": 0.267, "unit": "nm"},
      {"measurement": "Response (nm shift)", "setting": "[5]", "value": 0.213, "unit": "nm"},
      {"measurement": "Response (nm shift)", "setting": "[6]", "value": 0.416, "unit": "nm"},
      {"measurement": "Response (nm shift)", "setting": "[7]", "value": 0.565, "unit": "nm"},
      {"measurement": "Response (nm shift)", "setting": "[8]", "value": 0.322, "unit": "nm"},
      {"measurement": "Response (nm shift)", "setting": "[9]", "value": 0.406, "unit": "nm"},
      {"measurement": "Response (nm shift)", "setting": "[10]", "value": 0.192, "unit": "nm"},
      {"measurement": "Response (nm shift)", "setting": "[11]", "value": 0.508, "unit": "nm"},
      {"measurement": "Response (nm shift)", "setting": "[12]", "value": 0.323, "unit": "nm"}
    ]},
    {"binder": "B2", "values": [
      {"measurement": "Response (nm shift)", "setting": "[3]", "value": 0.88, "unit": "nm"},
      {"measurement": "Response (nm shift)", "setting": "[5]", "value": 0.684, "unit": "nm"},
      {"measurement": "Response (nm shift)", "setting": "[7]", "value": 1.13, "unit": "nm"},
      {"measurement": "Response (nm shift)", "setting": "[11]", "value": 1.02, "unit": "nm"},
      {"measurement": "Response (nm shift)", "setting": "[12]", "value": 0.784, "unit": "nm"}
    ]}
  ]
}
